What all share (experiment): cell-based or functional assay
Assay [1] addresses TM4SF1 (Transmembrane 4 L six family member 1) (human) (UniProt P30408).
For assay [2], the target named is TNFRSF12A (TNF receptor superfamily member 12A) (human) (UniProt Q9NP84).
In assay [3] the target is EpCAM (Epithelial Cell Adhesion Molecule) (human) (UniProt P16422).
The target of assay [4] is SDC1 (Syndecan 1) (human) (UniProt P18827).
UniProt P18827, sequence (P18827 23-310 L136Q limits assumed): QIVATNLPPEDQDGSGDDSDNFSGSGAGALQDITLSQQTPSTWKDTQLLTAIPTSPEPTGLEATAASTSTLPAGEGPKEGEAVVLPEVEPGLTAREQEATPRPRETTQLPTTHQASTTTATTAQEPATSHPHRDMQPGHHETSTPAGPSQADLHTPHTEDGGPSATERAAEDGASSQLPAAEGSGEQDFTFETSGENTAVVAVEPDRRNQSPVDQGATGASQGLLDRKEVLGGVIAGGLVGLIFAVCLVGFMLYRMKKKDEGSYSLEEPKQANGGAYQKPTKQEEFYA

UniProt P16422, sequence (P16422 24-314): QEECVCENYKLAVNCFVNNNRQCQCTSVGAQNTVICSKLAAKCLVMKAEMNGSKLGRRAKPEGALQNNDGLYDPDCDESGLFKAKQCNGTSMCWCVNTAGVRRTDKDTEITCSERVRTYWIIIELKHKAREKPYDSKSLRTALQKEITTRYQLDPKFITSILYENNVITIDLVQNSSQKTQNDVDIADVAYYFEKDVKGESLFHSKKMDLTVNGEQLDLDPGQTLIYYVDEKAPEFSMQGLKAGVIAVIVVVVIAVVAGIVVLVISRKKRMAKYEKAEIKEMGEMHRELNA
UniProt Q9NP84, sequence (Q9NP84 28-129 limits assumed): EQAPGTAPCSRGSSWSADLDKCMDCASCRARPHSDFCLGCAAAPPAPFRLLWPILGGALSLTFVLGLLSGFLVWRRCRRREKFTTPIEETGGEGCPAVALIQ
UniProt P30408, sequence (P30408 whole entry): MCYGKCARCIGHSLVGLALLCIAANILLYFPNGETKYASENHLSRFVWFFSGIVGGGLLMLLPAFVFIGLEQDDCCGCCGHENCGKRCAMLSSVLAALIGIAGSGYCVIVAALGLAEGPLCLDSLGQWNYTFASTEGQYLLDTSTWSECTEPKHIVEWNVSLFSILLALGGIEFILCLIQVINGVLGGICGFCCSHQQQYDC

In the case of “anti-TM4SF1 antibody (Human TM4SF1 Phycoerythrin MAb, R&D systems)”, in assay [1], the PANC1 cell collection ratio [%] was 66% and the PC3 cell collection ratio [%] turned out to be 76%.

Take “anti-TNFRSF12A antibody (PE anti-human CD266 (Fn14, TWEAK R) Antibody, Biolegend)”: in assay [2], the PANC1 cell collection ratio [%] was found to be 74.1% and the PC3 cell collection ratio [%] came out at 48%.

“anti-EpCAM antibody (PE-anti-human EpCAM Antibody, Miltenyi Biotec)”: in assay [3], the PANC1 cell collection ratio [%] is 49% and the PC3 cell collection ratio [%] was found to be 42%.

For “anti-SDC1 antibody (PE-anti-human SDC1 Antibody, Biolegend)”, in assay [4], the PC3 cell collection ratio [%] was 64%.

For the origin of these results see patent US20200408769A1.
